Biological target: αL-YFP/β2 (LFA-1 with dimerizing YFP on αL) on K562 cells (UniProt P20701)
Assay: FRET or BRET

Sequence of UniProt P20701 (P20701 whole entry, looked up): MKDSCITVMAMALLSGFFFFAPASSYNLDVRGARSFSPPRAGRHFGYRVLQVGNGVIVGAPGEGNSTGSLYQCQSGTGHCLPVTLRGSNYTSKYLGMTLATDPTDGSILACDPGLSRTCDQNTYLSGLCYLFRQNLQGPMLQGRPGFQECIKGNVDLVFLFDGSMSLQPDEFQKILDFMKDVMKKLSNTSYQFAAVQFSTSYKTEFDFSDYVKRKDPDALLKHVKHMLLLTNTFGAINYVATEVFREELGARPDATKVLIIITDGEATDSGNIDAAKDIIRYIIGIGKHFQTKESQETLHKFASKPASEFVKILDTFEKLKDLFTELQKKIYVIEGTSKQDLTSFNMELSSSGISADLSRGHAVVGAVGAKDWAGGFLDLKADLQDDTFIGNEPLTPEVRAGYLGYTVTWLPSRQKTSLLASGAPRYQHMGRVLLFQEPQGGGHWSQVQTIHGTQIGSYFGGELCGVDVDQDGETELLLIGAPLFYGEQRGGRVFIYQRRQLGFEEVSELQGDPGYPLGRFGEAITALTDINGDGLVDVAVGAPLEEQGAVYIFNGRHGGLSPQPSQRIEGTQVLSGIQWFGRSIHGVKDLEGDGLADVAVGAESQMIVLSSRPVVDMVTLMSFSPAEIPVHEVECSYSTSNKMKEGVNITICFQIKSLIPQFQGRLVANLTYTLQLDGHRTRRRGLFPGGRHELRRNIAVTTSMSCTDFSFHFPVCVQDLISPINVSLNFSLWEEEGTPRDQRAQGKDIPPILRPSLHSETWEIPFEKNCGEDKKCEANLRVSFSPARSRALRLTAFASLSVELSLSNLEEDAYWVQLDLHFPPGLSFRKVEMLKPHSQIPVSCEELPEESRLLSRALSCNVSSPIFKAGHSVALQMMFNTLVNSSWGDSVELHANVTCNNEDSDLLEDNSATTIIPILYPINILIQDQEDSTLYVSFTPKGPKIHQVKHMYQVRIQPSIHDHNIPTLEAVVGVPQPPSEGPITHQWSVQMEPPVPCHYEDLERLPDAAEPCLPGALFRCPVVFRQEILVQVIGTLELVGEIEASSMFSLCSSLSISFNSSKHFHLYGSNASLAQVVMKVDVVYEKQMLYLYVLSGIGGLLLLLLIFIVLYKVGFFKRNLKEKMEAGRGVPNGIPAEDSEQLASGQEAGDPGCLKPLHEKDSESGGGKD

A K (analogous to the dissociation constant of microclusters) of 532 was found for “αL-CFP/β2 (LFA-1 with dimerizing CFP on αL) on K562 cells (from UniProt P20701 26-1170; P05107 23-769) (receptor)” in this work.
